Like-named read-outs stand apart in the source and are kept apart here.
Experiments:
[1] = molecular target: integrin α4β7, P13612;P26010; assay: steady-state binding assay on primary α4β7+/CD4+ T-cells (flow cytometry, MFI); settings: read off a plot
[2] = molecular target: integrin α4β7 (human (endogenous in primary CD4+ T cells)) (UniProt P13612); assay: flow cytometry on cells; α4β7-reactivity: biotinylated gp120 on retinoic acid-cultured primary CD4+ T cells with CD4 masked by unlabeled mAb Leu3A (α4 mAb HP2/1 as specificity control); HBS with 100 µM CaCl2 and 1 mM MnCl2, on ice; Neutravidin PE; MFI of the CD45RO+/CCR5+ gate; steady state
[3] = molecular target: integrin α4β7 (human (endogenous in primary CD4+ T cells)) (UniProt P13612); assay: as above; remark: listed apart in the source
[4] = first point, plotted at x = 0 µg gp120, parent: est. 20

Question: 92Ug037 w.t. gp120 (subtype A) N133Q was tested. Which response ([1]; parent: est. 27) did it give?
Answer: Its response is 72 MFI.

Question: Which response ([1]; parent: est. 27) does the source give for 92Ug037 w.t. gp120 (subtype A) N137Q here?
Answer: Its response is 160 MFI.

Question: How did the response ([1]; parent: est. 27) turn out when “92Ug037 w.t. gp120 (subtype A) N187Q; N188Q” was run?
Answer: Its response is 540 MFI.

Question: For 92Ug037N144Q gp120 (natural protein), which fold increase in α4β7-reactivity over w.t. 92Ug037 [2] is on record?
Answer: Its fold increase in α4β7-reactivity over w.t. 92Ug037 is 20 fold.

Question: Which fold increase in α4β7-reactivity over w.t. 92Ug037 [2] does the source give for 92Ug037N355Q gp120 (natural protein) here?
Answer: Its fold increase in α4β7-reactivity over w.t. 92Ug037 is 27 fold.

Question: How did the fold increase in α4β7-reactivity over w.t. 92Ug037 [2] turn out when 92Ug037N385Q gp120 (natural protein) was run?
Answer: Its fold increase in α4β7-reactivity over w.t. 92Ug037 is 8 fold.

Question: How did the response ([1]; parent: est. 300) turn out when 93MW959 w.t. gp120 (subtype C) N139Q was run?
Answer: The response was 500 MFI.

Question: 93MW959 w.t. gp120 (subtype C) N145Q was tested. Which response ([1]; parent: est. 300) did it give?
Answer: Its response is 550 MFI.

Question: AN1 N204Q gp120 was tested. Which fold increase in α4β7-reactivity over AN1 w.t. expressed in CHO-S cells [2] did it give?
Answer: The fold increase in α4β7-reactivity over AN1 w.t. expressed in CHO-S cells was 23 fold.

Question: For AN1 NN140/143QQ gp120, which fold increase in α4β7-reactivity over AN1 w.t. expressed in CHO-S cells [2] is on record?
Answer: Its fold increase in α4β7-reactivity over AN1 w.t. expressed in CHO-S cells is 25 fold.

Question: With AN1 NN140/143QQ,N204Q gp120 as the substance, how does the fold increase in α4β7-reactivity over AN1 w.t. expressed in CHO-S cells [2] read?
Answer: The fold increase in α4β7-reactivity over AN1 w.t. expressed in CHO-S cells was 96 fold.

Question: What does the source list for “AN1 w.t. gp120 expressed in CHO lec1 cells”?
Answer: fold α4β7-reactivity over CHO S AN1 w.t. gp120 [2]: 100 fold; fold α4β7-reactivity over CHO S AN1 w.t. gp120 [3]: > 100 fold

Question: “QA203M41 chimeric gp120 (V1/V2 of QA203M41 in a Q23 backbone) N22Q; N25Q” was tested. Which response [1, 4] did it give?
Answer: Its response is 300 MFI.

Question: And the response ([1]; gp120 0.5 µg, parent: est. 20)?
Answer: The response was 270 MFI.

Question: What about the response ([1]; gp120 1 µg, parent: est. 25) of the same substance?
Answer: The response was 580 MFI.

Question: What about the response ([1]; gp120 1 µg, parent: est. 45) of the same substance?
Answer: Its response is 600 MFI.

Question: And the response ([1]; gp120 2 µg, parent: est. 30)?
Answer: Its response is 1400 MFI.

Question: What about the response ([1]; gp120 2 µg, parent: est. 110) of the same substance?
Answer: Its response is 1300 MFI.

Question: And the response ([1]; gp120 4 µg, parent: est. 50)?
Answer: Its response is 1700 MFI.

Question: And the response ([1]; gp120 4 µg, parent: est. 230)?
Answer: Its response is 2000 MFI.

Question: Which response [1, 4] does the source give for “QA203M41 chimeric gp120 (V1/V2 of QA203M41 in a Q23 backbone) N22Q; N25Q; N66Q; N67Q” here?
Answer: Its response is 200 MFI.

Question: And the response ([1]; gp120 1 µg, parent: est. 25)?
Answer: Its response is 410 MFI.

Question: And the response ([1]; gp120 2 µg, parent: est. 30)?
Answer: The response was 750 MFI.

Question: What about the response ([1]; gp120 4 µg, parent: est. 50) of the same substance?
Answer: The response was 1300 MFI.

Question: For “QA203M41 chimeric gp120 (V1/V2 of QA203M41 in a Q23 backbone) N66Q; N67Q”, which response [1, 4] is on record?
Answer: The response was 50 MFI.

Question: And the response ([1]; gp120 2 µg, parent: est. 30)?
Answer: The response was 180 MFI.

Question: What about the response ([1]; gp120 4 µg, parent: est. 50) of the same substance?
Answer: The response was 280 MFI.

Question: For “Z205F.ENV1.1 0Mfounder gp120 (natural protein)”, which fold bound to α4β7 over bound to CD4 [2] is on record?
Answer: The fold bound to α4β7 over bound to CD4 was 37 fold.

Question: What about the fold α4β7-reactivity over the 0-month escape gp120 [2] of the same substance?
Answer: Its fold α4β7-reactivity over the 0-month escape gp120 is 8 fold.

Question: And the fold α4β7-reactivity over the 8- and 38-month escape gp120s [2]?
Answer: Its fold α4β7-reactivity over the 8- and 38-month escape gp120s is greater than 17 fold.

Reference: paper PMC3044691
